Reference: the supplement of paper PMC9170038

Tested on: MS2 coat protein
Experiment: apparent KD of MS2 coat protein; designed switch direction (-1 OFF switch, 1 ON switch): -1; higher = weaker reporter binding
Outline: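 Normalised cluster fluorescence was curve-fitted, and each design's median over clusters is its apparent KD. Before this, SNAP-549-labelled MS2 coat protein was titrated from 0.7 or 1.5 nM, doubling to 3 µM, over RNA switches transcribed on Illumina chips by stalled E. coli RNA polymerase. Titrations had no input, 200 uM small-molecule ligand, or an oligonucleotide input, and steps lasted 0.8–1.5 h (lowest) to 10–20 min (highest).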

[1] = input ligand: microRNA oligo, concentration not stated
[2] = Eterna round: R95, input ligand: microRNA oligo, concentration not stated
[3] = Eterna round: R95, input ligand: FMN 200 uM
[4] = Eterna round: R95, input ligand: none

Sequence	apparent KD of MS2 coat protein [1] [nM]	apparent KD of MS2 coat protein (input ligand: FMN 200 uM) [nM]	apparent KD of MS2 coat protein (input ligand: none) [nM]	apparent KD of MS2 coat protein [2] [nM]	further results
UUAGAUUAUUGAGGAUAUGGAUAUUUUUAUUAACCAGAAGGCAAACUCAACAUGAGGAUCACCCAUGUAUAAAGGGUAUUAGUU [JR_ExcNG1_Sub098] (Eterna round: R96, puzzle: Exclusion NG 1)	71.2	–	–	–	–
UUAGCGUAUGUAAGGAUAUGCUGGUCUAAUGAUCAGCAGAAGGUACAUGAGGAUCACCCAUGUGUAUUCGUUAU [Mod of JL 7 - Jieux - Brourd's mod of Exclusion 4] (Eterna round: R97, puzzle: Brourd's mod of Exclusion 4)	–	75.9	18.4	–	–
UUAGGCUGAAGAUCAAUUAAUUAACAUGAGGAUCACCCAUGUAAGGAUAUCAGCUCGAUUAGAGCUGAGAAGGUACAUGCAGCC [ExNG3/18-A1] (Eterna round: R96, puzzle: Exclusion NG 3)	102	–	–	–	–
UUAUAAAGUGUGAGGAUAUGCUGGUCCAUAGAUCAGCAGAAGGCACAUGAGGAUCACCCAUGUAAUAUAUUUUU [Mat - Exclusion 4 - JL Mod - D43] (puzzle: Brourd's mod of Exclusion 4)	–	–	–	27.2	–
UUAUAACAUGAGGAUCACCCAUGUUAGGAUAUCGCAGUAAGCUUCAGUAAUGAGCAUUCGAGAAGGAACGGGUA [Eternabot (L2) Solution 63] (Eterna round: R97, puzzle: Exclusion 1)	–	22	22	–	–
UUAUACGCUGAGGAUAUCUUCACUAAAGUGUGAAGAGAAGGCGGUACAUGAGGAUCACCCAUGUCUAUGGGCAG [Ex-6 Malc#18] (puzzle: Exclusion 6)	–	–	–	568	apparent KD of MS2 coat protein [3]: 596 nM; apparent KD of MS2 coat protein [4]: 282 nM
UUAUACGUUGAGGAUAUGCGAAUAAGUAUAGUUGCAGAAGGCGAUACAUGAGGAUCACCCAUGUUCAUGGACAU [LRO-Ex6-04] (puzzle: Exclusion 6)	–	–	–	106	–
UUAUACGUUGAGGAUAUGCGAAUUAGUAUAGUUGCAGAAGGCGAUACAUGAGGAUCACCCAUGUUUAUGGGCAU [LRO-Ex6-06] (puzzle: Exclusion 6)	–	–	–	152	–
UUAUAGUAUGUAGGAUAUCGGUCAGUUUCUGAUCGAGAAGGACAUGAGGAUCACCCAUGUAAGGCUACCGGUUUCUGGUGGCCU [JL ENG1 3.52] (Eterna round: R96, puzzle: Exclusion NG 1)	18.5	94.4	20.9	–	–
UUAUAUAGAGUGAGGAUAUGCUGGUCCUUGGAUCAGCAGAAGGCACAUGAGGAUCACCCAUGUAAAAUAAUAUU [Mat - Exclusion 4 - JL Mod - D39] (puzzle: Brourd's mod of Exclusion 4)	–	–	–	21.1	–
UUAUUAAAUGUAGGAUAUGCAUAUUAUUAUUAUGCAGAAGGACAUGAGGAUCACCCAUGUAUAUUAUUAUUAUAUAUUAUAUAU [Title] (Eterna round: R96, puzzle: Exclusion NG 1)	26.5	–	–	–	–
UUAUUAAGUGUGAGGAUAUGCUGGUCCUUGGAUCAGCAGAAGGCACAUGAGGAUCACCCAUGUACAAUAUAUUA [Mat - Exclusion 4 - JL Mod - D30] (Eterna round: R96, puzzle: Brourd's mod of Exclusion 4)	30.5	235	42.1	–	–
UUAUUAAGUGUGAGGAUAUGCUGGUCCUUGGAUCAGCAGAAGGCACAUGAGGAUCACCCAUGUACAAUAUAUUA [Mat - Exclusion 4 - JL Mod - D30] (puzzle: Brourd's mod of Exclusion 4)	–	–	–	38.7	–
UUAUUAGCAGGAUAUAUCCGGGAUCACAUGAGGAUCACCCAUGUGACCGCUUGAGAUUCUAUAGAAGGGCUUUAUU [Mod of ViennaUCT 32 - Jieux - Exclusion 5] (Eterna round: R97, puzzle: Exclusion 5)	–	19.6	18.6	–	–
UUAUUAUAUGUAGGAUAUGCAUAUUAUUAUUAUGCAGAAGGACAUGAGGAUCACCCAUGUAUAUUAUUAUUAUAUAUUGUAUAU [Title] (Eterna round: R96, puzzle: Exclusion NG 1)	23.2	–	–	–	–
UUAUUAUAUGUAGGAUAUGCAUAUUAUUAUUAUGCAGAAGGACAUGAGGAUCACCCAUGUAUAUUAUUAUUGUAUAUUAUAUAU [Title] (Eterna round: R96, puzzle: Exclusion NG 1)	25.7	–	–	–	–
UUAUUAUAUGUAGGAUAUGCGUAUUAUUAUUAUGCAGAAGGACAUGAGGAUCACCCAUGUAUAUUAUUAUUAUAUAUUAUAUAU [Title] (Eterna round: R96, puzzle: Exclusion NG 1)	23.5	–	–	–	–
UUAUUAUAUGUAGGAUAUGCGUAUUAUUGUUAUGCAGAAGGACAUGAGGAUCACCCAUGUAUAUUAUUGUUAUAUAUUAUAUGU [Title] (Eterna round: R96, puzzle: Exclusion NG 1)	26.6	110	30.3	–	–

Sequence	apparent KD of MS2 coat protein [1] [nM]	apparent KD of MS2 coat protein (input ligand: FMN 200 uM) [nM]	apparent KD of MS2 coat protein (input ligand: none) [nM]	apparent KD of MS2 coat protein [2] [nM]	further results
UUAUUGUGAGGAUAUCAGGUGUGCUAGCGUACUGGUACAUCUGAGAAGGCACAUGAGGAUCACCCAUGUUUCUU [JL-ex4-3.22 Brourd mod] (Eterna round: R96, puzzle: Exclusion 4)	18.9	69.6	25	–	–
UUAUUGUGAGGAUAUCAGGUGUGCUAGCGUACUGGUACAUCUGAGAAGGCACAUGAGGAUCACCCAUGUUUCUU [JL-ex4-3.22 Brourd mod] (puzzle: Exclusion 4)	–	–	–	21.1	–
UUAUUGUUAGAGGAUAUAUUAAGGUAUGCUUUGAUAGAAGGCUAUACAUGAGGAUCACCCAUGUUUUUUGGGAU [JR_Ex6_Sub076] (Eterna round: R97, puzzle: Exclusion 6)	–	654	328	–	–
UUAUUUAGUGUGAGGAUAUGCUGGUCGAUAGAUCAGCAGAAGGCACAUGAGGAUCACCCAUGUAAUAUAUUAAA [Mat - Exclusion 4 - JL Mod - D34] (puzzle: Brourd's mod of Exclusion 4)	–	–	–	51.5	–
UUCACAUGGACAUAAGAUCACAUGAGGAUCACCCAUGUGAAUAACAAGCUUUUUGCUCGUCUUAUGUCCAAUAAUAG [Stov1/14-A2] (Eterna round: R97, puzzle: Sensor, turn-off variant 1)	–	15.8	13.3	–	–
UUCACAUGGACAUGAGAUCACAUGAGGAUCACCCAUGUGAAUAACAAGCUUUUUGCUCGUCUUAUGUCCAAUAAUAA [Stov1/14-C1] (Eterna round: R97, puzzle: Sensor, turn-off variant 1)	–	14	12.8	–	–
UUCACGUCAGGAUAUCCAUAUUUCUGAUAUAACGGUACUUUGGAGAAGGGACAUGAGGAUCACCCAUGUCCUCU [LRO-Excl4-19-Nando 22 Mod] (Eterna round: R97, puzzle: Exclusion 4)	–	15.5	16.9	–	–
UUCAUGUGAGGAUAUGUGUACUGCUUUCUGUUUAGAUGUACACAGAAGGCACAUGAGGAUCACCCAUGUAGUAC [Ex4 - 3 - 31] (puzzle: Exclusion 4)	–	–	–	33.8	–
UUCCAACGAGGAUAUCGAUGGUGGAACAUGAGGAUCACCCAUGUAUGAGAUAUUGUAGUUCGAGAAGGCGUUCAGU [JR_E5_Sub056] (puzzle: Exclusion 5)	–	–	–	31.5	–
UUCCUACAUGAGGAUCACCCAUGUCAGGAUAUAUAAAACGCUCAGAUAAAAGAGCAAGAUAGAAGGGAUUGGGA [Aquis] (Eterna round: R97, puzzle: Exclusion 1)	–	14.5	15.1	–	–
UUCCUACAUGAGGAUCACCCAUGUGAGGAUAUGCAUCGUAUUAUUCUCGUAUGUAGUAGCAGAAGGCGCAUUGG [Starry Exclusion 1.1] (Eterna round: R96, puzzle: Exclusion 1)	15.9	82.5	29	–	–
UUCCUACAUGAGGAUCACCCAUGUGAGGAUAUGCAUCGUAUUAUUCUCGUAUGUAGUAGCAGAAGGCGCAUUGG [Starry Exclusion 1.1] (puzzle: Exclusion 1)	–	–	–	36.9	apparent KD of MS2 coat protein [3]: 121 nM; apparent KD of MS2 coat protein [4]: 31.2 nM
UUCCUCGUUGUGAGGAUAUCGUAUUCUUUUUGUUACGAGAAGGCACAUGAGGAUCACCCAUGUUUCUUGAUGUU [JR_BMOE4_Sub069] (puzzle: Brourd's mod of Exclusion 4)	–	–	–	19.6	–
UUCCUGUCAGGAUAUGACUAGAUGCACGUUAGUGUGUUUACUUAGAAGGGACAUGAGGAUCACCCAUGUAGUCC [Bring Us a Shrubbery-16] (puzzle: Exclusion 4)	–	–	–	31.7	–
UUCGGCGGAGGAUAUACAGUUUUUUGUUGAAUCGGCGGGAAACAUGAGGAUCACCCAUGUAGAAGGUUGUUGAA [-18.7, -16.7 kcal, A 27%] (Eterna round: R97, puzzle: Exclusion 2)	–	63.3	78	–	–
UUCGGCGGAGGAUAUACAUAUUUUUGUUGAAUCGGCGGAAAACAUGAGGAUCACCCAUGUAGAAGGUUGUUGAA [-16.3, -13.4 kcal, A 30%] (Eterna round: R97, puzzle: Exclusion 2)	–	27.2	32.3	–	–
UUCGUACAGCAAAGCUGUACGCGUACAUGAGGAUCACCCAUGUAGGAUAUGGUAGGCAAAGCUUACUAGAAGGAUAGAGUGAUC [Mat - Exclusion NG 3 - Mod of JL - D76] (Eterna round: R96, puzzle: Exclusion NG 3)	290	593	582	–	–
UUCGUACAGCUUUGCUGUACGCGUACAUGAGGAUCACCCAUGUAGGAUAUGGUAGGCAAAGCUUACUAGAAGGAUAGAGUGAUC [Mat - Exclusion NG 3 - Mod of JL - D75] (Eterna round: R96, puzzle: Exclusion NG 3)	96.2	244	238	–	–
